Measured values as given in patent publication US20170267762A1 (APOLLOMICS, published 2017).

B1: humanized 13F1-hIgG4 (antibody)
heavy: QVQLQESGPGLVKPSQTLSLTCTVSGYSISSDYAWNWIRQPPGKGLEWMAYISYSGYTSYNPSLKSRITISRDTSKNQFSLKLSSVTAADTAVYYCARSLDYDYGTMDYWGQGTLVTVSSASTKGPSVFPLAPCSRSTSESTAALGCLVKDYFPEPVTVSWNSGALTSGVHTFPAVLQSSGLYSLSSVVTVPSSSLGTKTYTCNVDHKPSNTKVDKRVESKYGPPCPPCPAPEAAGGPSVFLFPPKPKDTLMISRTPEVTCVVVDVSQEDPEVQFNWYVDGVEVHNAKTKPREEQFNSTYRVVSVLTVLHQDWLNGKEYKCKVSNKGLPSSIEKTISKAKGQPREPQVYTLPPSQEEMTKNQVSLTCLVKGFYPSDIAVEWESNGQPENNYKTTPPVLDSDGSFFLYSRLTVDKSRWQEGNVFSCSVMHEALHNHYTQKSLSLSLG
light: EIVLTQSPATLSLSPGERATLSCRANSSVSSMHWYQQKPGQSPEPWIYAISNLAFGVPARFSGSGSGTDYTLTISSLEPEDFAVYYCQQWSSRPPTFGQGTKLEIKRTVAAPSVFIFPPSDEQLKSGTASVVCLLNNFYPREAKVQWKVDNALQSGNSQESVTEQDSKDSTYSLSSTLTLSKADYEKHKVYACEVTHQGLSSPVTKSFNRGEC
notes: IgG4 constant region with F234A and L235A, already in the entry; also called h13F1-IgG4; hu-13F1-hIgG4
B2: humanized 13F1-hIgG1 (antibody)
heavy: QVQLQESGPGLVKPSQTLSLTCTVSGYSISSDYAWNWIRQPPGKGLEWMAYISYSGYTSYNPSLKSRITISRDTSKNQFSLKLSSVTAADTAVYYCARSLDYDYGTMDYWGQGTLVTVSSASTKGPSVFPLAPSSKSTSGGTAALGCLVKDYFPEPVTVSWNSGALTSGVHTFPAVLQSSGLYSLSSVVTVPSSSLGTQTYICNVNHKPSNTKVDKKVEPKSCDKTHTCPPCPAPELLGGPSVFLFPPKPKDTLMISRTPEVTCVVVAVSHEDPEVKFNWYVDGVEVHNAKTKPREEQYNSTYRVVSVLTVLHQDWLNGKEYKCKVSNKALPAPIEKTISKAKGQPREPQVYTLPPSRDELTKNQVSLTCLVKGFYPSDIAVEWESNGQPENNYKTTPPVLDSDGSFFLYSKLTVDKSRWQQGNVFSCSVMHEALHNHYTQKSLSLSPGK
light: EIVLTQSPATLSLSPGERATLSCRANSSVSSMHWYQQKPGQSPEPWIYAISNLAFGVPARFSGSGSGTDYTLTISSLEPEDFAVYYCQQWSSRPPTFGQGTKLEIKRTVAAPSVFIFPPSDEQLKSGTASVVCLLNNFYPREAKVQWKVDNALQSGNSQESVTEQDSKDSTYSLSSTLTLSKADYEKHKVYACEVTHQGLSSPVTKSFNRGEC
notes: IgG1 constant region with D265A, already in the entry; also called h13F1-IgG1; hu-13F1-hIgG1
B3: 4C10 murine anti-PD-1 antibody (antibody, V domains shown)
VH: QVQLKQSGPGLVQPSQNLSVTCTVSGFSLTTYGVHWVRQSPGKGLEWLGVIWSGGSTDYNAAFISRLTISKDNARSQVFFKMNSLQVNDTAMYYCAREKSVYGNYVGAMDYWGQGTSVTVSS
VL: SIVMTQTPKFLLVSAGDRVTITCKASQSVSDDVAWYQQKPGQSPKLLIYYAFNRYTGVPDRFTGSGYGTDFTFTISTVQSEDLAVYFCQQDYRSPWTFGGGTKLEIKR
notes: Purified hybridoma antibody; also called 4C10-mIgG1
B4: humanized 7A4-hIgG4 (antibody)
heavy: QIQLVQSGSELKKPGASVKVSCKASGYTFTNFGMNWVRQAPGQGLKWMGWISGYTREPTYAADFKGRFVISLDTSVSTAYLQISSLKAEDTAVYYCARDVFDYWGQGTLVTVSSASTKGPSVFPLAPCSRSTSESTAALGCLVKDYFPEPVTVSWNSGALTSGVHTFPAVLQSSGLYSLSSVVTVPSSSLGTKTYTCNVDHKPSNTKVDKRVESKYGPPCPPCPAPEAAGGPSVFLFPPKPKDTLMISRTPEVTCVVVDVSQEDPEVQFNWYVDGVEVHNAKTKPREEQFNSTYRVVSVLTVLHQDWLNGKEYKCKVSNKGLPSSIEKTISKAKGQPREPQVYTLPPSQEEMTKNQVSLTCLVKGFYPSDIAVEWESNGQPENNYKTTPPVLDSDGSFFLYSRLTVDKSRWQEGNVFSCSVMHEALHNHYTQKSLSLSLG
light: DIVLTQSPASLAVSPGQRATITCRASESVDNYGYSFMNWFQQKPGQPPKLLIYRASNLESGVPARFSGSGSRTDFTLTINPVEANDTANYYCQQSNADPTFGQGTKLEIKRTVAAPSVFIFPPSDEQLKSGTASVVCLLNNFYPREAKVQWKVDNALQSGNSQESVTEQDSKDSTYSLSSTLTLSKADYEKHKVYACEVTHQGLSSPVTKSFNRGEC
notes: IgG4 constant region with F234A and L235A, already in the entry; also called h7A4-IgG4; 7A4-huIgG4

Tests used:
[1] = biological target: T1, human PD-1 extracellular domain fused with human Fc tag (hPD-1-hFc) (human); test: ELISA binding to plate-bound PD-1, OD450 (methods similar to Example 2: plate coated with PD1-hFc)
T1 construct: also called human PD-1-hFc
T1 sequence (chain, as listed by the source limits assumed): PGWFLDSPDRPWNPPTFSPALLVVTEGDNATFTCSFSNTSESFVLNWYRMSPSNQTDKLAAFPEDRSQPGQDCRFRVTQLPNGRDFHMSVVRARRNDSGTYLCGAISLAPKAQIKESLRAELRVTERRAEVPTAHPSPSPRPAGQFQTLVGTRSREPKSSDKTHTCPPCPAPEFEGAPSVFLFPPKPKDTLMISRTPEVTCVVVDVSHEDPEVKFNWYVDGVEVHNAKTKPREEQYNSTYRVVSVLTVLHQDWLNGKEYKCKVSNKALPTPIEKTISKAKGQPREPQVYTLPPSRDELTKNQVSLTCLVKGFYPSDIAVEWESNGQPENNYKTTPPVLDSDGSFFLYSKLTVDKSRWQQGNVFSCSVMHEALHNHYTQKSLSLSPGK
Procedure: (§1) ELISA binding analysis was conducted based on human PD-1-hFc Protein. 96-well plates (Costar, Cat No:9018) were coated with 100 μL of 2 μg/ml PD1-hFc (CrownBio) in coating buffer (PBS, Hyclone, Cat No:SH30256.01B) overnight at 4° C. The wells were aspirated and non-specific binding sites were blocked by adding 200 μL of blocking buffer with 1% (w/v) of bovine serum albumin (BSA, Roche, Cat No: 738328) and incubating for 1 hour at 37° C. After the plates are washed three times with wash buffer (PBS with 0.05%(v/v) Tween20 (Sigma, Cat No:P1379), 100 μL/well of a suitable dilutions of hybridoma supernatant in blocking buffer were added and incubated at room temperature for 1 hour. The plates were washed and incubated with 100 μL/well of Goat anti-Mouse IgG (H+L) (Thermo, Cat No: 31432) in blocking buffer for 60 min. After the plates were washed, 100 μL/well of substrate solution (TMB(eBioscience, Cat No:00-4201-56) was added and the plates were incubated for 2min at room temperature. 100 μL/well of stop solution (2N H2SO4) was added to stop the reaction. The colorimetric signals were developed and read at 450 nm using a Auto Plate SpectraMax Plus (Supplier: Molecular Devices; Model: MNR0643; Software: SoftMax Pro v5.4).

[2] = biological target: T2, human PD-1 on cells (293T cells transfected with human PD-1) (human, UniProt Q15116 25-288); test: FACS binding to 293T cells expressing human PD-1, MFI
T2 construct: whole, on cells; Also used as the target for the functional rows, where PD-1 stands on human T cells
T2 sequence (Q15116 25-288): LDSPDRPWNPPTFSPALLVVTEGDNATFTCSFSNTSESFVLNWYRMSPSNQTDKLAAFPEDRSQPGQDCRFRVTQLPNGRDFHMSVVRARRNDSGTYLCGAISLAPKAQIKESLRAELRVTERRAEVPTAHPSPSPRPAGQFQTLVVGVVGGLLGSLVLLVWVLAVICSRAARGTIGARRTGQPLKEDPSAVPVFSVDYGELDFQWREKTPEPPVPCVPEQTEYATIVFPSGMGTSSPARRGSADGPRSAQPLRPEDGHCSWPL
Procedure: (§2) The cells were incubated with the indicated antibody (20 ug/ml with the dilution of ⅕) at 4° C. for 1 h. Cells were washed three times with FACS buffer. A secondary antibody (PE Goat anti-mouse: 1:200; PE mouse anti-human: 1:10) was added to the cells at 100 ul/well, and incubated at 4° C. for 40min. Cells were washed three times with FACS buffer and analyzed by FACS Array.

[3] = biological target: T3, human PD-1 (construct not stated) (human, UniProt Q15116 25-167, limits assumed); test: SPR (Biacore 3000), antibody captured on the chip, PD-1 as analyte, 1:1 Langmuir fit
T3 construct: also called PD-1 analyte
T3 sequence (Q15116 25-167 limits assumed): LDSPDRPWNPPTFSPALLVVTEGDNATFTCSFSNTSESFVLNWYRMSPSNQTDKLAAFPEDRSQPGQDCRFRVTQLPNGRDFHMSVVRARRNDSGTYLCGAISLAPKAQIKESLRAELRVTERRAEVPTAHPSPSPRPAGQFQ
Procedure: To characterize the binding characteristics of the humanized antibodies, the binding kinetics between PD-1 and PD-1 antibodies were measured by Biacore3000 and recorded with a data collection rate of 1 Hz. The polyclonal rabbit anti-mouse IgG (GE, BR-1008-38) was diluted with 10 mM pH 5.0 sodium acetate and immobilized onto reference and experiment flow cells of a CMS biosensor chip to around 15000 RU using an amine coupling kit (GE, BR10050). In the beginning of each cycle, diluted test antibody (1.5 μg/mL) was injected over experiment flow cell for 1 minute to be captured. PD-1 analyte series were prepared by diluting the stocks with running buffer to 100nM followed by 2× serial dilution in the same buffer down to 0.78nM. Analytes were injected in series over the reference and experiment flow cells for 3 minutes at a flow rate of 30 μL/minute. Then running buffer (PBS with 0.05% P20) was allowed to flow over for 10 minutes at a flow rate of 30 μL/minute. At the end of each cycle, the biosensor surface was regenerated with 3 minutes injection of 10 mM pH1.7 Glycine-HC1 buffer at a flow rate of 10 μL/minute. For each analyte sample injection (i.e. each cycle), binding responses obtained from the experimental biosensor surface were double referenced by subtracting simultaneously recorded responses from the reference surface followed by additional subtraction of responses from a single referenced running buffer sample. The association and dissociation rate constants (ka and kd) were determined simultaneously by fitting double-referenced sensorgrams of the entire titration series to Langmuir model (1:1) using Biaevaluation 4.0 software. The dissociation constant, KD, was calculated from the determined rate constants by the relation KD =kd/ka. […] The Biocore binding curves are shown in FIGS. 10 and 17A, top panel, and the quantified binding data are summarized in FIGS. 10 and 17A, bottom panel.

[4] = biological target: T2, human PD-1 on cells (293T cells …); test: FACS ligand blockage: biotin-labeled PD-L1 binding to 293T cells expressing human PD-1, MFI
Procedure: (§3) Various concentrations of the testing hybridoma antibodies were added to the cell suspension and incubated at 4° C. for 60 minutes in 96 well plates. […] Plates were washed 3 times, and mouse anti-biotin PE antibody (Biolgend, cat# 409004) was added. Flow cytometric analyses were performed using a FACS Array.

[5] = biological target: T4, human PD-1 extracellular domain fused with mouse Fc (PD-1-mFc) (human, UniProt Q15116 25-170); test: ELISA ligand blockage: biotinylated PD-L1-mFc binding to plate-bound PD-1, OD450 (methods similar to Example 2: PD-1-mFc coated)
T4 construct: extracellular domain; not used because of the label; also called hPD-1-mFc; human PD-1-mouse Fc fusion protein
T4 sequence (Q15116 25-170): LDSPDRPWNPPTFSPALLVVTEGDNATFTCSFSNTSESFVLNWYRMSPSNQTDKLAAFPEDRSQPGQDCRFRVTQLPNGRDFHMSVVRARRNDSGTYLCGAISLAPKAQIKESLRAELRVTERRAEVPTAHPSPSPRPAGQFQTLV
Procedure: (§4) PD-1-mFc antigen (CrownBio) was suspended in PBS (Hyclone,Cat No:SH30256.01B) buffer (2 ug/ml, 100 ul/ well) and coated on the 96 well plate (costar, Cat No.:9018) 4° C. overnight. Plates were washed 3 times using washing buffer: PBS+0.05% Tween 20(Sigma, Cat No.:P1379). 200 ul of blocking buffer (PBS+1%BSA(Roche, Cat No.:738328)), was added to each well, incubated at 37° C. for 1 hour, and washed 3 times. Various concentrations (suitable dilutions of hybridoma supernatant in PBS) of the anti-PD-1 Abs were added to the wells (100 μl/well) and incubated at 37° C. for 1 hour. […] Secondary antibody (Avidin HRP eBioscience cat No.:E07418-1632, 1:500, 100 ul/well) was added, incubated at 37 ° C. for 0.5 hour, and washed 3 times. TMB (Sigma, Cat No.: T0440, 100 ul/well) was added, and incubated for 3 min at RT. To stop the reaction, 2N H2SO4 (100 ul/well), was added. The colorimetric signals were developed and read at 450 nm using a Auto Plate SpectraMax Plus (Supplier: Molecular Devices; Model: MNR0643; Software: SoftMax Pro v5.4).

[6] = biological target: T1, human PD-1 extracellular domain fused …; test: ELISA on coated PD1-hFc
Procedure: as §1
(§5) The purified hybridoma antibodies were characterized further based on ELISA and FACS analyses.

[7] = biological target: T2, human PD-1 on cells (293T cells …); test: FACS blockage on hPD-1-293T cells, competitor biotin PD-L1
Procedure: as §3, §5

[8] = biological target: T3, human PD-1 (construct not stated); test: Biacore (summary table; unit from Table 7)
Procedure: (§6) To further characterize the binding characteristics of the antibodies, 10 hybridoma antibodies were profiled using Biacore (Biacore 3000, GE) to elucidate binding kinetics and calculate equilibrium binding constants. This assay was performed by capture method, using the mouse antibody capture kit (BR-1008-38, GE). After diluting anti-mouse Fc mab to 25 μg/ml in pH 5.0 immobilization buffer, immobilization was conducted with the parameters shown in Table 6 at a flow rate of 5 μl/min. The kinetic runs were done by 1) injecting ligand for typical 0.5-1 min at flow rate of 10 μl/min.; 2) injecting analytes of choice for typical 3 min followed by dissociation in running buffer (1× PBS-P20) for typical 5-10 min at flow rate of 30 μl/min.; and 3) injecting regeneration solution 10 mM Glycine pH1.7 for typical 1-2 min at flow rate of 10 μl/min.

[9] = biological target: T4, human PD-1 extracellular domain fused …; test: blockage ELISA, competitor PDL-1-mFc-biotin (summary table; IC50 in ng/ml in Table 2)
Procedure: as §4

[10] = biological target: T2, human PD-1 on cells (293T cells …); test: FACS blockage on hPD-1-293T cells, competitor biotin PD-L2
Procedure: as §3, §5

mouse PD-1 = biological target: T5, mouse PD-1 (mouse, UniProt Q02242 25-169, limits assumed); test: assays not detailed
T5 sequence (looked up): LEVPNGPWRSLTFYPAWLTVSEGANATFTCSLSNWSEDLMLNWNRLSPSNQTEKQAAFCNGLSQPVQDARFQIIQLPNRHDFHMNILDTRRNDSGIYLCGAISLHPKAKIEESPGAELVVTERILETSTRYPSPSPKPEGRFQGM

[11] = biological target: T2, human PD-1 on cells (293T cells …); test: FACS on hPD-1-293T cells
Procedure: as §2, §5

[12] = biological target: T1, human PD-1 extracellular domain fused …; test: ELISA binding (summary table)
Procedure: as §1, §5

[13] = biological target: T3, human PD-1 (construct not stated); test: Biacore, antibody captured, PD-1 analyte
Procedure: as §6

human CD28 = human CD28 (human, UniProt P10747 19-152, limits assumed); test: Interaction with CTLA4, ICOS CD28; assay not detailed
Chain of human CD28 (P10747 19-152 limits assumed): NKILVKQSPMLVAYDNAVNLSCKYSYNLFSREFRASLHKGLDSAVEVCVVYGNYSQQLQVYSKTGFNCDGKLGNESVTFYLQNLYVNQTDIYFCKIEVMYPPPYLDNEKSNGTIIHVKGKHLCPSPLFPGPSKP

human CTLA4 = biological target: T6, human CTLA4 (human, UniProt P16410 36-161, limits assumed); test: as above
T6 sequence (looked up): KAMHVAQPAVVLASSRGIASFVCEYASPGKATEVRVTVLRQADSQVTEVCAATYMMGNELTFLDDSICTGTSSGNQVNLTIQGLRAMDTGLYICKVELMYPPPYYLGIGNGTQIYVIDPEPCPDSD

human ICOS = biological target: T7, human ICOS (human, UniProt Q9Y6W8 21-140, limits assumed); test: as above
T7 sequence (looked up): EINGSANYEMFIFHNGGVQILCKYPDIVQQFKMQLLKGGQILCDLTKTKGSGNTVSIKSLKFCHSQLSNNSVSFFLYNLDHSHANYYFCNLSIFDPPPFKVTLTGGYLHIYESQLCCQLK

[14] = biological target: T4, human PD-1 extracellular domain fused …; test: blockage ELISA, coated PD-1-mFc, competitor PDL-1-mFc-biotin
Procedure: as §4, §5

Row | Binder | EC50 [1] | EC50 [2] | Ka [3] | Kd [3] | koff [3] | kon [3] | IC50 [4] | IC50 [5] | other results
1 | B1 | 0.031 µg/mL | 0.0763 µg/mL | 5.78e+09 M⁻¹ | 0.173 nM | 0.000119 s⁻¹ | 687000 M⁻¹ s⁻¹ | 0.026 µg/mL | 0.579 µg/mL | 
2 | B2 | 0.0357 µg/mL | 0.0668 µg/mL |  |  |  |  | 0.0295 µg/mL | 0.985 µg/mL | 
3 | B3 |  |  |  |  |  |  |  |  | EC50 [6]: 0.0132 µg/mL; IC50 [7]: 0.0833 µg/mL; Kd [8]: 0.0332 nM; IC50 [9]: 1.46 µg/mL; IC50 [10]: 0.251 µg/mL; binding result (mouse PD-1): no binding; EC50 [11]: 0.109 µg/mL; EC50 [12]: 0.0132 µg/mL; Ka [13]: 3.01e+10 M⁻¹; Kd [13]: 0.0332 nM; koff [13]: 2.63e-05 s⁻¹; kon [13]: 791000 M⁻¹ s⁻¹; binding result (human CD28): no binding; binding result (human CTLA4): no binding; binding result (human ICOS): no binding; IC50 [14]: 1.46 µg/mL
4 | B4 | 0.0707 µg/mL | 0.0621 µg/mL | 2.93e+09 M⁻¹ | 0.342 nM | 0.000498 s⁻¹ | 1.46e+06 M⁻¹ s⁻¹ | 0.0169 µg/mL | 0.886 µg/mL | 
